Measurements as given in the Human Domainome abundance scans (Beltran et al. 2025).
± gives the uncertainty stated by the source.

B1: Tumor protein 63, residues 545 to 610; numbered along this chain, Q9H3D4 (parent)
chain: TDCSIVSFLARLGCSSCLDYFTTQGLTTIYQIEHYSMDDLASLKIPEQFRHAIWKGILDHRQLHEF

Variants of: B1
Test: abundance fitness (aPCA) (normalised: wild type 0, dead -1); higher = more abundant; growth selection in yeast, the domain comes from the species named
Conditions: Homo sapiens

Variant	abundance fitness
TDCSIVSFLARLGCSSCLDYFTTQGLTTIYQIEHYSMDDLASLKIPEQFRHAIWLGILDHRQLHEF	-0.06 ± 0.025
TDCSIVSFLARLGCSSCLDYFTTQGLTTIYQIEHYSMDDLASLKIPEQFRHAIWMGILDHRQLHEF	-0.048 ± 0.035
TDCSIVSFLARLGCSSCLDYFTTQGLTTIYQIEHYSMDDLASLKIPEQFRHAIWKGILDHRQQHEF	-0.016 ± 0.033
TDCSIVSFLARLGCSSCLDYFTTQGLTTIYQIEHYSMDDLASLKIPEQFRHAIWKGILDHRQVHEF	-0.043 ± 0.025
TDCSIVSFLARLGCSSCLDYFTTQGLTTIYQIEHYSMDDLASLKIPEQFRHAIWKGILDHRQIHEF	-0.034 ± 0.029
TDCSIVSFLARLGCSSCADYFTTQGLTTIYQIEHYSMDDLASLKIPEQFRHAIWKGILDHRQLHEF	-0.008 ± 0.037
TDCSIVSFLARLGCSSCNDYFTTQGLTTIYQIEHYSMDDLASLKIPEQFRHAIWKGILDHRQLHEF	-0.047 ± 0.029
TDCSIVSFLARLGCSSCYDYFTTQGLTTIYQIEHYSMDDLASLKIPEQFRHAIWKGILDHRQLHEF	-0.047 ± 0.025
TDCSIVSFLARLGCSSCLDYFTTQGLTTIYQIEHYSMMDLASLKIPEQFRHAIWKGILDHRQLHEF	0.048 ± 0.26
TDCSIVSFLARLGCSSCLDYFTTQGLTRIYQIEHYSMDDLASLKIPEQFRHAIWKGILDHRQLHEF	-0.051 ± 0.021
TDCSIVSFLARLGCSSCLDYFTTQGLTGIYQIEHYSMDDLASLKIPEQFRHAIWKGILDHRQLHEF	-0.069 ± 0.024
TDCSIVSFLARLGCSSCLDYFTTQGLTTIYQIEHYSMDDLASLKIWEQFRHAIWKGILDHRQLHEF	-1.1 ± 0.26
TDCSIVSFLARLGCSSCLDYFTTQGLTTIYQIEHYSMDDLASLKIVEQFRHAIWKGILDHRQLHEF	-0.922 ± 0.079
TDCSIVSFLARLGCSSCLDYFTTQGLTTIYQIEHYSMDDLWSLKIPEQFRHAIWKGILDHRQLHEF	-0.111 ± 0.025
TDCSIVSFLARLGCSSCLDYFTTQLLTTIYQIEHYSMDDLASLKIPEQFRHAIWKGILDHRQLHEF	-0.582 ± 0.03
TDCSIVSFLARLGCSSCLDYFTTQGLTTIYQIEHYSMDDLASLKAPEQFRHAIWKGILDHRQLHEF	-0.721 ± 0.043
TDCSIVSFLARLGCSSCLDYFTTQGLTTIYQIEHYSMDDLASLKDPEQFRHAIWKGILDHRQLHEF	-0.982 ± 0.093
TDCSIVSFLAILGCSSCLDYFTTQGLTTIYQIEHYSMDDLASLKIPEQFRHAIWKGILDHRQLHEF	-0.126 ± 0.043
TDCSIVSFLARLGCSSCLDYFTTQGLTTIYQIEHYYMDDLASLKIPEQFRHAIWKGILDHRQLHEF	-0.311 ± 0.068
TDCSIVSFLARLGCSECLDYFTTQGLTTIYQIEHYSMDDLASLKIPEQFRHAIWKGILDHRQLHEF	-0.033 ± 0.025
DDCSIVSFLARLGCSSCLDYFTTQGLTTIYQIEHYSMDDLASLKIPEQFRHAIWKGILDHRQLHEF	-0.039 ± 0.038

Variant	abundance fitness
RDCSIVSFLARLGCSSCLDYFTTQGLTTIYQIEHYSMDDLASLKIPEQFRHAIWKGILDHRQLHEF	-0.199 ± 0.026
TDCSIVSFLARLGCSSCLDYFTTQGLTTIYNIEHYSMDDLASLKIPEQFRHAIWKGILDHRQLHEF	-0.133 ± 0.02
TDCSIVSFLARLGCSSCLDYFTTQGLTTIYLIEHYSMDDLASLKIPEQFRHAIWKGILDHRQLHEF	-0.431 ± 0.034
TDCSIVSFLARLGCSSCLDYFTTQGLTTIYQIEMYSMDDLASLKIPEQFRHAIWKGILDHRQLHEF	-0.044 ± 0.027
TYCSIVSFLARLGCSSCLDYFTTQGLTTIYQIEHYSMDDLASLKIPEQFRHAIWKGILDHRQLHEF	-0.182 ± 0.052
TDCSIVSFLARLGCSSCLDWFTTQGLTTIYQIEHYSMDDLASLKIPEQFRHAIWKGILDHRQLHEF	-0.097 ± 0.033
TDCSIVSFLARLGCSSCLDVFTTQGLTTIYQIEHYSMDDLASLKIPEQFRHAIWKGILDHRQLHEF	-0.109 ± 0.024
TDCSIVSFLARLGCSSCLDYFTTQGLTTIYQIEHYSMDDGASLKIPEQFRHAIWKGILDHRQLHEF	-0.993 ± 0.041
TDCSIVSFLARLGCSSCLDYFTTQGLTTIYQIEHYSMDDCASLKIPEQFRHAIWKGILDHRQLHEF	-0.509 ± 0.066
TDCSIVSFLARLGCSSCLDYFTTQGLTTIYQIEHYSMDDEASLKIPEQFRHAIWKGILDHRQLHEF	-1.03 ± 0.11
TDCSIVSFLARLGCSSCLDYFTDQGLTTIYQIEHYSMDDLASLKIPEQFRHAIWKGILDHRQLHEF	-0.027 ± 0.032
TDCSIVSFLARLGCSSCLDYFTEQGLTTIYQIEHYSMDDLASLKIPEQFRHAIWKGILDHRQLHEF	-0.02 ± 0.033
TDCSIVSFLARLGCSSCLDYFTMQGLTTIYQIEHYSMDDLASLKIPEQFRHAIWKGILDHRQLHEF	-0.01 ± 0.033
TDCSISSFLARLGCSSCLDYFTTQGLTTIYQIEHYSMDDLASLKIPEQFRHAIWKGILDHRQLHEF	0.003 ± 0.026
TDCSIVSFLARLGCSSCLDYFTTQGLTTIYQIEHYSMDDLASVKIPEQFRHAIWKGILDHRQLHEF	-0.134 ± 0.024
TDCSIVSFLARLGCSSCLDYFTTQGLTTIYQIEHYSMDDLASGKIPEQFRHAIWKGILDHRQLHEF	-0.702 ± 0.034
TDCSIVSFLARLGCSSCLDYFTTQGLTTIYQIEHYSMDDLASHKIPEQFRHAIWKGILDHRQLHEF	-0.296 ± 0.057
TDCSIVSFLARLGCSSCLDYFTTQGLTTIYQIEHYSMDDLASTKIPEQFRHAIWKGILDHRQLHEF	-0.396 ± 0.033
TDCSIVSFLARLLCSSCLDYFTTQGLTTIYQIEHYSMDDLASLKIPEQFRHAIWKGILDHRQLHEF	-0.438 ± 0.029
TDCSIVSFLARLSCSSCLDYFTTQGLTTIYQIEHYSMDDLASLKIPEQFRHAIWKGILDHRQLHEF	-0.076 ± 0.027
